Data as given in the supplement of paper PMC10567573.

B1: FUNDC2 (parent)
chain: YIKVDWQRVEKDMKKAKEQLKIRK
B2: NEK8 (parent)
chain: VTIKHVACGDFFTACLTDRGIIMT

Variants of: B1
Experiment: protein stability index of a GFP-peptide fusion (GPS, HEK-293T) (PSI 1-6); higher = more stable
Conditions: c terminus: a fixed tail appended
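Further: lentivirally expressed fusions sorted by FACS into six bins by GFP to DsRed ratio, PSI derived from sequencing read proportions per bin multiplied by bin number.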

Protein stability index of substitutions, site by site:
K21: T 1.87 | S 2.22 | G 2.13 | N 1.91 | E 2.28 | I 1.68 | L 1.71 | H 1.74 | D 1.86 | F 1.69 | Q 1.62 | A 1.87 | C 2.06 | R 2 | V 2.19 | Y 2.5 | P 1.84 | W 2.06 | M 1.96
Q19: R 1.33 | S 2.04 | Y 1.8 | W 1.79 | T 2.8 | V 1.19
R23: C 1.57 | N 3.5 | W 1.59 | Q 2.07 | H 1.9 | M 1.97 | S 2.02 | A 2.08 | I 2.79 | F 1.57 | T 2.19 | L 1.6 | Y 1.67 | G 1.69 | V 2.26 | P 1.63 | D 2.06 | K 2.6 | E 1.76
I22: N 1.98 | D 1.92 | G 1.83 | M 1.97 | W 2.11 | K 2.25 | F 2.12 | R 1.29 | P 1.49 | Q 2.51 | Y 1.88 | C 1.47 | S 2.01 | E 2.65 | A 1.21 | T 1.57 | L 2.12 | H 1.88
L20: V 1.77 | D 1.77 | A 2.3 | M 1.32 | Q 1.42 | T 2.62 | I 2.42 | R 1.6 | F 4.29 | H 1.71 | W 2.65 | N 1.49 | S 1.52 | E 2.4 | Y 1.91 | K 1.59 | G 1.89 | P 1.95 | C 2
K24: H 2.12 | M 1.31 | R 1.12 | N 2.07 | Y 1.38 | V 2.61 | F 1.52 | C 2.47 | D 2.02 | Q 1.31 | W 1.69 | A 2.81 | L 2.16 | P 1.6 | S 1.67 | T 1.76 | G 1.85 | E 2.03

Variants of: B2
Experiment: as above
Conditions: c terminus: a fixed tail appended

Protein stability index, by site and new letter:
F11: P 3.05 | N 2.85 | W 4.01 | M 3.07 | Q 3.07 | S 2.05 | K 2.13 | I 4.45 | G 1.8 | V 2.76 | Y 2.81 | L 2.23 | H 1.88 | A 2.49 | C 1.91 | T 2.82 | D 1.46 | E 2.9
G9: A 2.32 | E 2.66 | W 3.39 | T 3.5 | S 3.21 | K 2.98 | M 3.93 | Y 3.79 | R 3.64 | I 3.19 | D 3 | H 2.74 | F 2.38 | C 1.88
D10: W 2.4 | C 2.56 | T 2.71 | K 3.54 | I 3.11 | V 2.91 | H 3.8 | R 2.3 | Y 2.44 | N 1.59 | M 3.29 | E 3.23 | L 2.26
A14: D 1.98 | Q 1.12 | G 2.51 | W 2.01 | P 2.68 | C 2.65 | E 1.47 | T 3.17 | Y 2.65 | H 1.86 | V 2.55 | K 1.9 | M 3.53 | I 2.87 | R 2.34 | L 2.31
C15: H 1.61 | Y 2.42 | K 2.58 | L 2.37 | M 4.25 | D 3.14 | V 2.5 | I 3.26 | N 4.23 | E 3.04 | R 2.91 | F 3.35 | T 3.74 | S 3.9 | W 3.09 | Q 2.59
C8: N 3.4 | Y 3.47 | D 3.33 | V 2.48 | T 2.44 | F 2.28 | L 3.14 | A 3.3 | R 3.18 | P 2.4 | I 2.51 | W 2.41 | Q 3.4 | E 3.57
L16: P 2.59 | E 1.89 | I 2.3 | A 4.14 | D 1.91 | H 2.88 | C 2.43 | F 3.61 | M 2.15 | K 3.12
H5: K 1.19 | R 3.65 | M 5.14 | D 3.02 | W 2.46 | S 3.48 | F 2.88 | L 1.99 | T 3.55 | P 3.52 | C 2.12 | I 4.16
K4: Y 2.75 | C 3.59 | L 3.2 | G 3.43 | H 2.81 | D 2.87 | P 2.13 | E 1.58 | A 4.56 | F 2.88 | I 2.27 | M 1.33 | N 2.03 | W 3.87 | V 1.74 | R 2.47 | T 2.17 | S 2.57
V6: L 2.85 | A 2.86 | N 3.92 | W 4.09 | K 2.63 | D 1.35 | E 3.14 | I 3.76 | F 2.71 | T 2.61 | Y 1.72 | G 2.57 | P 4.25 | S 2.55 | R 3.07 | H 2.85
T13: N 1.86 | S 1.28 | M 2.39 | K 3.17 | Q 2.47 | Y 3.95 | L 2.11 | C 2.13 | V 2.64 | I 1.31 | D 3.61 | F 2.81 | H 3.07 | P 3.32
T2: G 3.03 | Y 3.11 | S 2.88 | E 2.31 | K 2.06 | M 3.25 | W 2.38 | D 2.1 | I 2.48 | P 3.12 | R 2.24 | F 3.64 | C 2
V1: Q 1.59 | G 3.39 | A 2.57 | T 1.54 | C 2.23 | N 2.51 | I 2.71 | F 1.99 | E 1.45 | H 2.87 | W 4.31 | S 3.58 | R 2.44 | K 1.91 | Y 3.81 | P 1.33 | M 3.97
I3: K 1.92 | R 2.22 | N 2.55 | D 3.11 | L 2.32 | T 3.18 | G 2.58 | S 2.69 | Y 2.57 | V 2.27 | E 2.6 | P 2.31 | H 2.67 | Q 2.49 | F 3.2 | A 1.28
A7: P 1.72 | Q 3.77 | L 2.33 | C 1.98 | S 1.57 | D 2.43 | Y 3.2 | E 2.69 | T 2.88 | K 3.25 | M 2.95 | I 2.61
F12: D 2.2 | Y 2.02 | K 1.81 | W 2.6 | M 2.61 | C 1.53 | T 3.71 | V 2.77 | P 1.8 | G 2.17 | S 3.05 | E 1.72 | R 2.21 | L 1.79 | N 2.67 | I 3.98
